Measured values taken from the Human Domainome abundance scans (Beltran et al. 2025).
± gives the uncertainty stated by the source.

B1: 3'-5' exoribonuclease 1, residues 65 to 114; numbered along this chain, Q8IV48 (parent)
chain: VYKEIAITNGCINRMSKEELRAKLSEFKLETRGVKDVLKKRLKNYYKKQK

Variants of: B1
Test: abundance fitness (aPCA) (normalised: wild type 0, dead -1); higher = more abundant; growth selection in yeast, the domain comes from the species named
Settings: Homo sapiens
In the case of K35S, the abundance fitness is reported as -0.48 ± 0.038. In the case of E18M, the abundance fitness is reported as 0.012 ± 0.055. In the case of E18I, the abundance fitness is reported as -0.003 ± 0.062. With E18S the abundance fitness was 0.038 ± 0.039. In the case of E18G, the abundance fitness is reported as -0.023 ± 0.035. E18H gave an abundance fitness of -0.043 ± 0.062. R21P showed an abundance fitness of -0.697 ± 0.071. Variant R21E has an abundance fitness of -0.841 ± 0.058. For K3I, the abundance fitness was -0.336 ± 0.06. In the case of K3D, the abundance fitness is reported as -0.192 ± 0.072. Variant K3Q has an abundance fitness of -0.035 ± 0.061. Variant K3Y has an abundance fitness of -0.251 ± 0.08. Variant K3W has an abundance fitness of -0.509 ± 0.052. With K3A the abundance fitness was -0.089 ± 0.043. For K3E, the abundance fitness was 0.012 ± 0.064. Work on K3V yielded an abundance fitness of -0.294 ± 0.044. Variant K3F has an abundance fitness of -0.34 ± 0.061. Work on I12F yielded an abundance fitness of -0.693 ± 0.048. With I12L the abundance fitness was -0.389 ± 0.034. With I12D the abundance fitness was -0.961 ± 0.088. In the case of I12S, the abundance fitness is reported as -0.769 ± 0.04. Variant S25G has an abundance fitness of -0.039 ± 0.037. For S25F, the abundance fitness was -0.104 ± 0.044. Work on S25R yielded an abundance fitness of 0.022 ± 0.038. For K48P, the abundance fitness was -0.87 ± 0.061. With K48L the abundance fitness was -0.264 ± 0.036. Work on K48I yielded an abundance fitness of -0.611 ± 0.085. With K48C the abundance fitness was -0.323 ± 0.049. With K48G the abundance fitness was -0.25 ± 0.035. Work on R32W yielded an abundance fitness of -0.478 ± 0.051. R32N gave an abundance fitness of -0.409 ± 0.037. In the case of R32G, the abundance fitness is reported as -0.394 ± 0.039. In the case of R32M, the abundance fitness is reported as -0.646 ± 0.051. R32I gave an abundance fitness of -0.628 ± 0.037. For N13M, the abundance fitness was -0.801 ± 0.057. With N13W the abundance fitness was -0.938 ± 0.049. With N13V the abundance fitness was -0.764 ± 0.041. For N13E, the abundance fitness was -0.446 ± 0.05. With K43C the abundance fitness was -0.823 ± 0.061. K43M showed an abundance fitness of -0.506 ± 0.063. K43A showed an abundance fitness of -0.579 ± 0.05. For K43L, the abundance fitness was -0.593 ± 0.042. K43N showed an abundance fitness of -0.39 ± 0.061. With K43E the abundance fitness was -0.712 ± 0.063. Variant F27Y has an abundance fitness of -0.019 ± 0.046. F27D showed an abundance fitness of -0.652 ± 0.078. With F27T the abundance fitness was -0.483 ± 0.05. Work on F27I yielded an abundance fitness of 0.003 ± 0.054. F27A gave an abundance fitness of -0.065 ± 0.046. S16R gave an abundance fitness of -0.097 ± 0.061. In the case of S16D, the abundance fitness is reported as -0.336 ± 0.093. S16F showed an abundance fitness of -0.701 ± 0.043. S16E showed an abundance fitness of -0.746 ± 0.28. With S16V the abundance fitness was -0.753 ± 0.081. S16W showed an abundance fitness of -1.19 ± 0.29. S16I gave an abundance fitness of -0.828 ± 0.078. Work on S16G yielded an abundance fitness of -0.425 ± 0.078. With L24P the abundance fitness was -0.984 ± 0.072. Work on L24T yielded an abundance fitness of -0.832 ± 0.084. L24C showed an abundance fitness of -0.052 ± 0.049. Variant L24G has an abundance fitness of -0.97 ± 0.048. Work on Q49N yielded an abundance fitness of -0.099 ± 0.077. Work on Q49A yielded an abundance fitness of -0.164 ± 0.04. Q49L showed an abundance fitness of -0.099 ± 0.039. Q49W showed an abundance fitness of -0.206 ± 0.041. In the case of Q49H, the abundance fitness is reported as -0.109 ± 0.032. With Q49R the abundance fitness was -0.221 ± 0.032. With Q49V the abundance fitness was -0.182 ± 0.039. With Q49F the abundance fitness was -0.208 ± 0.076. For Q49I, the abundance fitness was -0.074 ± 0.072. In the case of Q49S, the abundance fitness is reported as -0.19 ± 0.04. K17V gave an abundance fitness of -0.152 ± 0.061. In the case of K17R, the abundance fitness is reported as -0.203 ± 0.07. Work on K17W yielded an abundance fitness of -0.871 ± 0.17. Work on K17F yielded an abundance fitness of -0.646 ± 0.058. E4M showed an abundance fitness of -0.144 ± 0.05. E4H showed an abundance fitness of -0.173 ± 0.053. With E4S the abundance fitness was -0.077 ± 0.039. E4T showed an abundance fitness of -0.06 ± 0.047. With C11A the abundance fitness was 0.046 ± 0.038. In the case of C11E, the abundance fitness is reported as 0.071 ± 0.046. Variant C11R has an abundance fitness of -0.074 ± 0.037. With I7E the abundance fitness was -0.175 ± 0.051.
